Article PMC6078970, “Nonequilibrium self-assembly dynamics of icosahedral viral capsids packaging genome or polyelectrolyte” (Nature Communications, 2018)

Target: the molecule itself
Test: SAXS (static); purified subunits alone, pH 7.5, ionic strength 0.5 M; radius of gyration 33 Å

B1: cowpea chlorotic mottle virus (CCMV) capsid protein, dimeric subunit (natural protein)
chain: RVVQPVIVEPIASGQGKAIKAWTGYSVSKWTASCAAAEAKVTSAITISLPNELSSERNKQLKVGRVLLWLGLLPSVSGTVKSCVTETQTTAAASFQVALAVADNSKDVVAAMYPEAFKGITLEQLTADLTIYLYSSAALTEGDVIVHLEVEHVRPTFDDSFTPVY
notes: capsid (coat) protein of cowpea chlorotic mottle virus, extracted from purified virions; 90 dimers make the T = 3 capsid; Protein as it stands in native virions; no tag; also called CCMV subunits; subunits; source: CCMV grown in blackeye cowpea leaves; capsid proteins extracted from purified virions (dialysis against 0.5 M CaCl2, centrifugation at 150,000 x g)
  stoichiometry N: 2
